The values below come from the DeepSol protein solubility set.

A short description of this data set: soluble on expression in E. coli; label from the status in PepcDB or PDB records.
Take “SLSTADALDDENTFKILVATDIHLGFMEKDAVRGNDTFVTLDEILRLAQENEVDFILLGGDLFHENKPSRKTLHTCLELLRKYCMGDRPVQFEILSDQSVNFGFSKFPWVNYQDGNLNISIPVFSIHGNHDDPTGADALCALDILSCAGFVNHFGRSMSVEKIDISPVLLQKGSTKIALYGLGSIPDERLYRMFVNKKVTMLRPKEDENSWFNLFVIHQNRSKHGSTNFIPEQFLDDFIDLVIWGHEHECKIAPTKNEQQLFYISQPGSSVVTSLSPGEAVKKHVGLLRIKGRKMNMHKIPLHTVRQFFMEDIVLANHPDIFNPDNPKVTQAIQSFCLEKIEEMLENAERERLGNSHQPEKPLVRLRVDYSGGFEPFSVLRFSQKFVDRVANPKDIIHFFRHREQKEKTGEEINFGKLITKPSEGTTLRVEDLVKQYFQTAEKNVQLSLLTERGMGEAVQEFVDKEEKDAIEELVKYQLEKTQRFLKERHIDALEDKIDEEVRRFRETRQKNTNEEDDEVREAMTRARALR”: the “soluble on expression in E. coli” value is given as “soluble”. Take “SLTASIVYLNNVRLETGFAKDHHELTYTKTARYTLAIQEGKIQAIIPQNQVTEKQQGTDLNGQLAIPAFQESHNHLDKTYLSLGWRASQPVKNLKERLADEASELKLLAPSTEQRATAMIEKLIGYGASYIRTHVNIDPYVELENFWGVKRALEKYAHVIDYDIVVFPQHGLLKNPQTVLLMREALKNGGTMVGGLDPAGIDYAIEESLETIFDLAEEFQVGIDIHLHDTGEVGVYTIDKFLDILEERKFTQRTAISHAFALLDVRPAEKEKLYQRLATHQTAIMSTIPYDPRYLLPPIDVLRQAGVSVHLGSDGFFDSWSSNVSGDLFEKLRNFCEMTGKITEEQLTQAYVHGCGKVAPFSFEEERLWFTEGDEANFIFTEAASTAEVIARKPQKRQIMLKGQWV”: the “soluble on expression in E. coli” value is “soluble”. Take “SLTRATKGFLSKSLPKASEATPGSQSSDYIPLVSLQLASGAFLLNEAFCTTIQIPMEKLKWTSPFSCLRMSLVTRRQDLKTQSPQDCTSLSSSPPSCDGISLKSEESSDQESNAMLEHMGKLWATVVALAWLEHSSANYIIEWELVAAKASSWVEKQKVPEGRTLSTLKNTARQLFVLLRHWDEKLEFNMLCYNPNYV”: the “soluble on expression in E. coli” value is recorded as “soluble”. Next, “SLTTENQNPLVLDKNEEISQQKADDIRLQLRQEPEVKRLAQQIDVKNQMELLEYGKEPAVEISKFSDRILGMMKTTSVTDSGTMLTQLGKIMDRFDKNDFDEPKGLMAKIFKRGGSMIEKIFKKYQTLGGEIEKIHVEISKYKDEMTKTNYTLDEMYENNIKYYMELEKYVVAGQMKLEEMQSILPSYEEKAASGNQLAQMQLDTLRNGIQALEERVYDLDMARMVALQTAPQIRLLQRGNAKLIGKINSAFIITIPIFKNGIIQAVTVKRQKLVADSMSELDRRTNEMLKRNAENISSQSVEIARMAGRPSIDIETIESSWNTIVSGMQETKQIEEENKRLREDGARRIAQLQDNIKKAALQQ”: “soluble”; “SLTTFATEWEKQLELYPEEYRKAYRRVKRASEILLREPEPQVGLTPKEVIWTKNKTKLYRYIPKQEKTQRVPILLIYALINKPYIMDLTPGNSLVEYLVDRGFDVYMLDWGTFGLEDSHLKFDDFVFDYIAKAVKKVMRTAKSDE”: “soluble”; “SLVARSVVVSAEAVYSHEGEYVGDHVLVDEGLVKSISRGEPHVSVGKRVAVKGFLLPPLVDAHLHMRSLGASFRIVNLKGASSPEEVAKRLAAANSPIAVGRGWNEEEFRPGSRLDRRILDSYLGEKPALAVRICGHVAVANSAFIRESGVDKLFPNLVDRERGLLLEDAVSYAVSVAMKTYNNEELLRDAASALASVGVFGVSSMACSEEEVRALSLIGDALEVRVACYLRRGVEPPPKRAGARWSIVGVKLFADGSLGGRTAYLRRPYISGENEGWRGLKLLSSRDIAEEAVSNSHRGLATAVHAIGDAALDEVLEGFSNAISRGVEPGMLRVEHASLAWPNQIDRLASLRVWTVVQPLFRVSDWWLESRVGSDMLQAAYPFASMLRAGVKLALSTDAPVETYDPAETFKAAVGLCSSRLCRESESLTPRETLKLYTLNSALASGGPVAWLGRLRRGAPALFAVANVDVLNSGRKELEKLKFRGLNLAK”: “not soluble”. Next, “SMAFKIQLDTLGQLPGLLSIYTQISLLYPVSDSSQYPTIVSTFEQGLKRFSEAVPWVAGQVKAEGISEGNTGTSFIVPFEDVPRVVVKDLRDDPSAPTIEGMRKAGYPMAMFDENIIAPRKTLPIGPGTGPDDPKPVILLQLNFIKGGLILTVNGQHGAMDMVGQDAVIRLLSKACRNDPFTEEEMTAMNLDRKTIVPYLENYTIGPEVDHQIVKADVAGGDAVLTPVSASWAFFTFSPKAMSELKDAATKTLDASTKFVSTDDALSAFIWKSASRVRLERIDGSAPTEFCRAVDARPAMGVSNNYPGLLQNMTYHNSTIGEIANESLGATASRLRSELDPASMRQRTRGLATYLHNNPDKSNVSLTADADPSTSVMLSSWAKVGLWDYDFGLGLGKPETVRRPIFEPVESLMYFMPKKPDGEFCAALSLRDEDMDRLKADKEWTKYAQYVG”: “soluble”. Next, “SMFIKKIKAKANNNEINVIIEIPMNSGPIKYEFDKESGALFVDRFMQTTMSYPCNYGFIPDTLSNDGDPVDVLVVAHHPVVPGSVIKCRAIGVLMMEDESGLDEKIIAVPTSKLDITFDHIKELDDLCEMLKKRIVHFFEHYKDLEKGKWVKVTGWGDKVKAETLIKEGIDRN”: “soluble”; “SMPHSVTLRGPSPWGFRLVGGRDFSAPLTISRVHAGSKAALAALCPGDLIQAINGESTELMTHLEAQNRIKGCHDHLTLSVSRPEGESDL”: “soluble”; “SMSMKATRLAIPDVILFEPRVFGDDRGFFFESYNQRAFEEACGHPVSFVQDNHSRSARGVLRGLHYQIRQAQGKLVRATLGEVFDVAVDLRRGSPTFGQWVGERLSAENKRQMWIPAGFAHGFVVLSEYAEFLYKTTDFWAPEHERCIVWNDPELKIDWPLQDAPLLSEKDRQGKAFADADCFP”: “soluble”. For the sequence “SNAMARKKNTSDQSRSQAANTPIAGTYEGEYSVIELEADSYTTDGWLISINGVPSSHIVLGQPQALEFEYMRWIATGARAFIDAHQDASKLRITHLGGGACTMARYFADVYPQSRNTVVELDAELARLSREWFDIPRAPRVKIRVDDARMVAESFTPASRDVIIRDVFAGAITPQNFTTVEFFEHCHRGLAPGGLYVANCGDHSDLRGAKSELAGMMEVFEHVAVIADPPMLKGRRYGNIILMGSDTEFFSSNSTEASAITRELLGGGVPAQYKDESWVRKFASGAQARHDGVSTLQMPSDTPQHPAETPEHSNTQP”, the “soluble on expression in E. coli” value is “soluble”. As for “SNAMIRKYRYGAPFDTEALTEKIETAEEAFPYGEISQKEGFAFTYIMDEDDIVYGLGESNRGINKRGYCYISNCTDDPIHTEDKRSLYGAHNFIIVSGKTTFGLFFDYPSKLTFDIGYTRMDTLKVSCENADLDIYVIEGENAYDIVKQFRRVIGRSYIPPKFAFGFGQSRWGYTTKEDFRAVAKGYRENHIPIDMIYMDIDYMQDFKDFTVNEKNFPDFPEFVKEMKDQELRLIPIIDAGVKVEKGYEVYEEGVKNNYFCKREDGSDFVAAVWPGDTHFPDMLNPEARKWFGDKYRFLIDQGIEGFWNDMNEPAIFYSSEGLAEAKEFAGEFAKDTEGKIHPWAMQAKMKDIVNSPEDYKRFYHNVNGKKIRHDKVHNLFGYNMTRAAGEAFERIDPEKRFLMFSRSSYIGMHRYGGIWMGDNKSWWSHILLNLKMLPSLNMCGFMYTGADLGGFGDDTTRDLLLRFLALGVFTPLMRDHAAEGTREQECYQFENIEDFRSVINARYRLVPYLYSEYMKAALNDDMYFKPLGFVYPDDKMAIRVEDQLMLGNEIMIAPVYEQNARGRYVYLPEEMKFIKFMPDGSISEEVLEKGVHYVDVALNEVPLFIRSGKCIPVAEAAECVKDIDTENMQLIGYEGSSYTLYEDDGIHKDYDKKENYRVLTK”, the “soluble on expression in E. coli” value is listed as “soluble”. Turning to “SNAMQKSVLEQLKQVTMVVADTGDFELIKKYKPVDATTNPSLILKAVKEQKYSNLVAETISKVKANNPDLNSDDLVKEIAIEILVSFGIKILDVIEGKVSSEVDARVSFNSATTIDYAKRIIARYESNGIPKDRVLIKIAATWEGIKAAKLLQKEGINCNLTLIFDKAQAKACAEAGVYLVSPFVGRITDWQMQQNNLKTFPAIADDDGVNSVKAIYKLYKSHGFKTIVMGASFRNVEQVIALAGCDALTISPVLLEELKNRDEHLEVKLTKNDDVVTQSPQISEADFRWLMNENAMATHKLAEGIRLFTKDTIELENIIKQNL”, the “soluble on expression in E. coli” value is recorded as “soluble”. Next, “SNAMRIGHGFDVHKFGENGSGPLIIGGVRIPYEKGLLAHSDGDVALHAATDALLGAAALGDIGKLFPDTDPAFKGADSRGLLREAYRRILAKGYKLGNLDITIIAQAPKMAPHIPQMRVNLAEDLQCHMDDINVKATTTEQLGFTGRGEGIACEAVVLLVNVEQG”: “soluble”; “SNDLSQWSISKDSNLDSPWIEGIPGCGIPGAGSLVEHIDRQILVLQRDGRYIVGLLRSYDQYANLVLENTFERFVLNDSYCDEPLGVFIIRGENVALLGEVDGEKESQWLSHLHTVSLEDTKKTIRGKRQATKALLHSQPERVEWTFYDDAFF”: “soluble”. Take “SNPFAHLAEPLDPVQPGKKFFNLNKLEDSRYGRLPFSIRVLLEAAIRNCDEFLVKKQDIENILHWNVTQHKNIEVPFKPARVILQDFTGVPAVVDFAAMRDAVKKLGGDPEKINPVCPADLVIDHSIQVDFNRRADSLQKNQDLEFERNRERFEFLKWGSQAFHNMRIIPPGSGIIHQVNLEYLARVVFDQDGYYYPDSLVGTDSHTTMIDGLGILGWGVGGIEAEAVMLGQPISMVLPQVIGYRLMGKPHPLVTSTDIVLTITKHLRQVGVVGKFVEFFGPGVAQLSIADRATIANMCPEYGATAAFFPVDEVSITYLVQTGRDEEKLKYIKKYLQAVGMFRDFNDPSQDPDFTQVVELDLKTVVPCCSGPKRPQDKVAVSDMKKDFESCLGAKQGFKGFQVAPEHHNDHKTFIYDNTEFTLAHGSVVIAAITSCTNTSNPSVMLGAGLLAKKAVDAGLNVMPYIKTSLSPGSGVVTYYLQESGVMPYLSQLGFDVVGYGCMTCIGNSGPLPEPVVEAITQGDLVAVGVLSGNRNFEGRVHPNTRANYLASPPLVIAYAIAGTIRIDFEKEPLGVNAKGQQVFLKDIWPTRDEIQAVERQYVIPGMFKEVYQKIETVNESWNALATPSDKLFFWNSKSTYIKSPPFFENLTLDLQPPKSIVDAYVLLNLGDSVTTDHISPAGNIARNSPAARYLTNRGLTPREFNSYGSRRGNDAVMARGTFANIRLLNRFLNKQAPQTIHLPSGEILDVFDAAERYQQAGLPLIVLAGKEYGAGSSRDWAAKGPFLLGIKAVLAESYERIHRSNLVGMGVIPLEYLPGENADALGLTGQERYTIIIPENLKPQMKVQVKLDTGKTFQAVMRFDTDVELTYFLNGGILNYMIRKMAK”: the “soluble on expression in E. coli” value is given as “soluble”. On to “SNTPSAEADWSPGLELHPDYKTWGPEQVCSFLRRGGFEEPVLLKNIRENEITGALLPCLDESRFENLGVSSLGERKKLLSYIQRLVQIHVDTMKVI”, for which the “soluble on expression in E. coli” value is recorded as “soluble”.

With “SPLKFELCPGRMIGGNNPCFIIAEIGQNHQGDIEIAKKMIKMAKDCGADCAKFQKSELEYKFNKKALERPYTSKHSWGKTYGEHKRHLEFSHEQYRELQQYAKQVGIFFTASGMDEMAVEFLHELDVPFFKVGSGDTNNFPYLKKTAQKGRPMVVSSGMQSMETMQHVYKIVKEHNQNFCILQCTSAYPLEPEDVNLRVITEYQKEFPDIPIGYSGHESGINITVGAVALGAKVVERHVTLDKSWKGSDHAASLEPEELAELVRSIRIVERALGTGLKRMLPCEVPCHDKLGKSVVAKTSIPKGTELTLDMLAVKVAEPKGVAPEEIFQLVGKKVTTDVEEDESITEDVVDSYGKKAKA”, the “soluble on expression in E. coli” value is “soluble”.
